We go through 32 sequences from the supplement of paper PMC12764529.

Data set [1] in a line: folding stability dG unfold from chymotrypsin proteolysis; higher = more stable. In outline:
(§1)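 Designed mini-proteins (under 80 residues, no cysteine) in a PA-tagged cDNA display construct were digested with trypsin and chymotrypsin. Each protease was used at 11 concentrations (threefold dilutions) plus a no-protease condition, followed by sequencing. K50 was inferred by Bayesian fitting of sequencing counts, and unfolding free energy was derived against a sequence-predicted unfolded-state K50 and a shared folded-state K50, per protease or combined. Only designs with AlphaFold2 dimer inter-PAE above 15 were kept.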

Data set [2] in a line: folding stability dG unfold (combined trypsin and chymotrypsin); higher = more stable. In outline: as §1

± gives the half width of the 95% confidence interval.

Take “SAGMKVTVSPASLVFDPATGRLLRPVLVTVEDTGGGGKTPAEEQAAAAEATRRALAAELAPRTGSALDLSAG [r5_333_JUSTAS]”: the “folding stability dG unfold” value came to 0.912 ± 0.069 kcal/mol in data set [1] and 0.37 ± 0.091 kcal/mol in data set [2].
For the sequence “SAGMPADTFIELNITITVPSEEYEADPAAVKAAADAAIAAAKAAGLPVDAATFTFERVPPVDPNNPRVGSAG [r5_979_JUSTAS]”, the “folding stability dG unfold” value in data set [1] is -0.605 ± 0.2 kcal/mol; in data set [2] it was below -1 kcal/mol.
For “SAGMTPEDLKNGKPVKVPIPIPIRDPDGKPWAEIPIKGPMPVKDIMEVIETIREIARELKIPPSDGDKNSAG [r5_606_TrROS]”, in that order: -0.743 ± 0.53 kcal/mol and below -1 kcal/mol.
For “SAGMVIELPNATITIETVPDPSSSNKVYRVTVTAHLPDGSRPVVVLTFPENVPIEEILKEAIKAAEELLSAG [r5_704_JUSTAS]”, in that order: 5.93 ± 0.14 kcal/mol and above 6 kcal/mol.
On the same counts, the results for “SAGPAVAVAPIPALEARPDLKDALVRVVVSPLPDGRVAVDVRPVFVPKPVITPEEARELEELAEKLAASAGG [r19_313_TrMRF]” are 0.297 ± 0.027 kcal/mol and -0.224 ± 0.13 kcal/mol.
Take “SAGPEIKIEPRSYDPKKGIFTYSAYVLDYKDGKKEREIEVGTWRYYGPDGTVEPISEEDILQKAKDLLSSAG [r5_909_TrMRF]”: the “folding stability dG unfold” value amounted to 0.543 ± 0.32 kcal/mol in data set [1] and 0.371 ± 0.18 kcal/mol in data set [2].
On the same counts, the results for “SAGPITPEEIQEKVTKAMEEEGMDNVNVDVQRDEDNGRITIQVEVQMPPGNKEKAQRIQDAIQDELGIKSAG [r5_9_TrROS]” are 0.89 ± 0.062 kcal/mol and 0.277 ± 0.099 kcal/mol.
For “SAGPWKIEVEQYDPNGKKEEIEDPEDLLDLAKDLPPNRMVHIKIPNGRETIMFQNPDGNVFVLKIERPESAG [r5_506_TrROS]”, in that order: -0.0396 ± 0.33 kcal/mol and -0.374 ± 0.34 kcal/mol.
On the same counts, the results for “SAGRIKSIQINPYENPNGQYPITVRVRWPGNGKERDRNFPMSPNDARNQAKELAKELPGKPLEIDEITSAGG [r19_317_TrROS]” are -0.545 ± 0.15 kcal/mol and -0.943 ± 0.19 kcal/mol.
With “SAGRRKVEIPIPFDDPGQAMSADELADELRELGLKPGHEPKVEPHPDGYMRVKFEVPGPEVTIHIPMWDSAG [r5_144_TrROS]”, the “folding stability dG unfold” value in data set [1] was 0.747 ± 0.16 kcal/mol; in data set [2], 0.183 ± 0.098 kcal/mol.
For “SAGRRSLVLLAPVDDPARAPTAEELARELLALGGTPATRPRAEPLEDDTLRVTFEAPGVDVTVLVDLRASAG [r5_144_TrMRF]”, in that order: 0.638 ± 0.12 kcal/mol and 0.138 ± 0.11 kcal/mol.
With “SAGSAVVRDFDFEVPPGYGVLDVTVTEGPGPPVWEGTVTFQAGGAPETLTVTIPVDPATGARSVAMTAGSAG [r5_136_JUSTAS]”, the “folding stability dG unfold” value in data set [1] is 0.267 ± 0.13 kcal/mol; in data set [2] it was -0.235 ± 0.25 kcal/mol.
For “SAGSVSLPPGAVLTEERKLPDGSLVRTTTTVSPVPELPVDRIETTTEFYAPGGEKIGTETSSSLRPPGESAG [r5_787_JUSTAS]”, in that order: -0.0977 ± 0.13 kcal/mol and -0.493 ± 0.35 kcal/mol.
Turning to “SAGSVTRSFPSGSSVSAETDPETNTITISTSPSSGQLVAQLPTAGEKVVPVSDRDLEEAAKEAAEALLSSAG [r5_447_JUSTAS]”, the entries for the “folding stability dG unfold” value in data set [1] and in data set [2] were -0.134 ± 0.12 kcal/mol and -0.854 ± 0.32 kcal/mol, respectively.
On the same counts, the results for “SAGVKIERDPNPGWMEITYPIDNKPIQIEIPMDPNNGQMKVKVEYGDGKPKEYTIPGGSIEEIIEDLFSAGG [r19_159_TrROS]” are 0.111 ± 0.23 kcal/mol and below -1 kcal/mol.
For “SAGVRYLVATGEDGATVVVPVPAETEEEAEEKAEELARELAERFPGARFVPVPVEEPELPPVEALPGVESAG [r5_950_TrMRF]”, in that order: 0.429 ± 0.11 kcal/mol and -0.46 ± 0.57 kcal/mol.
For “SAGWDLKIEPEPNPDNGMRMINIEYEDPDGDGPYTVSIMYHNGKIKAVEVQDPNTGEPELTPEALEELFSAG [r5_872_TrROS]”, in that order: 0.14 ± 0.26 kcal/mol and -0.305 ± 0.49 kcal/mol.
On to “SAIKIEDDPNGYQQIEIPNPENGRKIVITMMYSPDGQFQMSLQRMDPNGKKKTITAPMPVEEAIDELKDSAG [r14_179_TrROS]”, for which the figures for the “folding stability dG unfold” value in data set [1] and in data set [2] were 0.698 ± 0.33 kcal/mol and 0.0571 ± 0.6 kcal/mol, respectively.
As to “SALDPAAGTVTATVTRPVTLPDGRTVPVTRPVRVPVTYDVVVRDPETGEVVRAADYDPETGRLRDASAASAG [r14_122_TrMRF]”, the “folding stability dG unfold” value was 0.548 ± 0.37 kcal/mol in data set [1] and below -1 kcal/mol in data set [2].
On the same counts, the results for “SAMDLSTLPPSTSVTPSTSSLPGNLSRSTYTLTTRDPETGALTVTTVTTYTDPSSSSTTVTPSTTLLPASAG [r14_307_JUSTAS]” are 0.34 ± 0.22 kcal/mol and 0.00104 ± 0.15 kcal/mol.
Consider “SAMKIEIEVPSLEQVKKLEKLLPDKYKISEVKVDPETKKVYVIIELDPSLSPEEVAKLEKEFEEVVKEESAG [r14_306_TrMRF]”, for which the “folding stability dG unfold” value stood at 5.03 ± 0.28 kcal/mol in data set [1] and 5.14 ± 0.58 kcal/mol in data set [2].
On the same counts, the results for “SAMNVTLTKHPDGTYTVGATLPGYSPVSTQTIPSSVPSYTVTYRTPDEVLKVTYKDSGLTPERVPISRLSAG [r14_403_JUSTAS]” are 0.395 ± 0.053 kcal/mol and -0.0343 ± 0.044 kcal/mol.
On the same counts, the results for “SAPVRTVTLNVPVERDAAGNLVPVSPEEIVAELEKEGYPREEIEVKNVTETTIPVTIEVDLVNGKMRVLGSA [r9_225_JUSTAS]” are -0.326 ± 0.61 kcal/mol and below -1 kcal/mol.
On the same counts, the results for “SAYYKIRWNNGREIELKDMPIEDLEKYFPGGPVEIEPVPPVPVVRIESWEQANDLAEQNPPNHTIIVMDSAG [r14_445_TrROS]” are -0.476 ± 0.83 kcal/mol and -0.634 ± 0.56 kcal/mol.
“SGMDVFVASDPGPSYLRAEARLPGGESRVLTSGPPEEARALVERLAAEEDPAMAVRRVEEVPPGELPPELSA [r9_137_JUSTAS]”: the “folding stability dG unfold” value in data set [1] is -0.38 ± 0.18 kcal/mol; in data set [2], below -1 kcal/mol.
For “SGMTIEVEKEIEIYDPEKGVKIGSVKVKVLVPTSYSPEEIPEIAEKEIKKAKEELEKPEPPEVNEDGTLKSA [r9_454_JUSTAS]”, in that order: 0.751 ± 0.035 kcal/mol and 0.241 ± 0.16 kcal/mol.
For “SGMTTPVAEIDNTDGKPEKVKEWIKKTIPKTPPVTVTRTLASGAPSTWTIDPNTGKVTESVPGGHVTVAASA [r9_853_JUSTAS]”, in that order: -1.07 ± 0.7 kcal/mol and below -1 kcal/mol.
For “SGMVTLEDIAAAPPGTPVVVTTKKQGSKNLTFIDAVVDGARSSASYPSIEEARKELEAVGYPVEFVDPAESA [r9_1021_JUSTAS]”, in that order: 0.143 ± 0.066 kcal/mol and -0.429 ± 0.19 kcal/mol.
Take “SIIIPPKESAEEVLNEIKELLPPGRKYKITVFNPENGRMHEADFDPKKGNIEVEPHPFPNGPPFLMIERKSA [r9_1059_TrROS]”: the “folding stability dG unfold” value is -0.387 ± 0.63 kcal/mol in data set [1] and -0.42 ± 0.49 kcal/mol in data set [2].
For “SITISPDKVYTLKNVRVGDYEVDGLVAVAGPDGTVYVPADVRPVVVPPPAPPVGLDPVDGGVYDITDPSVSA [r9_603_TrMRF]”, in that order: -0.965 ± 0.61 kcal/mol and below -1 kcal/mol.
For “SKPITADEIAKHFPGIKDVEPTPNKKRLDFDNPNGHKPTIEVSPDGTIMIEHQNPDNGQKQEQEIPIDDLSA [r9_427_TrROS]”, in that order: 0.596 ± 0.056 kcal/mol and 0.0598 ± 0.26 kcal/mol.
On the same counts, the results for “SKTIYFPIPNDDPEEAVEWIADKLLEEHGHKIKDVEIPHKNGYYVRIEVDPNNPKIDIEVWPYDPDGEPLSA [r9_173_TrROS]” are 0.728 ± 0.18 kcal/mol and 0.534 ± 0.52 kcal/mol.
